Results from patent US20250388673A1 (HIFIBIO, published 2025).
Positions count from the first letter of the chain named.

B1: HFB6-4hz11-hG1 (antibody, human IgG1, V domains shown)
VH: QVQLQESGPGLVKPSGTLSLTCAVSGFNIKDTYIHWVRQPPGKGLEWIGRNDPANGNTKYNPSFKSRATISADKSKNQASLKLSSVTAADTAVYYCASYEGYYERFGYWGQGTLVTVSS
VL: DVVMTQSPLSLPVTLGQPASISCRSSQSLLDRDGKTYLNWLQQRPGQSPRRLIYLVSKRDSGVPDRFSGSGSGTDFTLKISRVEAEDVGVYYCWQDTHFPYTFGQGTKLEIK
notes: Humanized variant of HFB6-4, human IgG1 (hG1)
B2: HFB6-4hz17-hG1 (antibody, human IgG1, V domains shown)
VH: B1 VH
VL: EIVLTQSPGTLSLSPGERATLSCRSSQSLLDRDGKTYLNWLQQKPGQAPRRLIYLVSKLDSGIPDRFSGSGSGTDFTLTISRLEPEDFAVYYCWQDTHFPYTFGQGTKLEIK
notes: as for B1
B3: HFB6-4hz12-hG1 (antibody, human IgG1, V domains shown)
VH: EVQLVQSGAEVKKPGESLKISCKTSGFNIKDTYIHWVRQMPGKGLEWIGRNDPANGNTKYSPSFQGQVTISADKSISTAYLQLSSLKASDTAMYYCASYEGYYERFGYWGQGTLVTVSS
VL: B1 VL
notes: as for B1
B4: HFB6-4hz13-hG1 (antibody, human IgG1, V domains shown)
VH: QVQLVQSGAEVKKPGSSVKVSCKTSGFNIKDTYIHWVRQAPGQGLEWIGRNDPANGNTKYAQKFQGRATITADESTSTAYMELSSLRSEDTAVYYCASYEGYYERFGYWGQGTLVTVSS
VL: B2 VL
notes: as for B1
B5: HFB6-4hz18-hG1 (antibody, human IgG1, V domains shown)
VH: B3 VH
VL: B2 VL
notes: as for B1
B6: HFB6-4hz15-hG1 (antibody, human IgG1, V domains shown)
VH: EVQLVESGGGLVQPGRSLRLSCTTSGFNIKDTYIHWFRQAPGKGLEWVGRNDPANGNTKYTASFKGRATISADGSKSIAYLQMNSLKTEDTAVYYCASYEGYYERFGYWGQGTLVTVSS
VL: B2 VL
notes: as for B1
B7: HFB6-4hz19-hG1 (antibody, human IgG1, V domains shown)
VH: B4 VH
VL: DIVMTQSPDSLAVSLGERATINCKSSQSLLDRDGKTYLNWLQQKPGQSPKRLIYLVSKLDSGVPDRFSGSGSGTDFTLTISSLQAEDLAVYYCWQDTHFPYTFGQGTKLEIK
notes: as for B1
B8: HFB6-4hz20-hG1 (antibody, human IgG1, V domains shown)
VH: B4 VH with S16A, A68V, I70M, E74T, A79V
VL: B7 VL
notes: as for B1
B9: HFB6-4hz14-hG1 (antibody, human IgG1, V domains shown)
VH: B4 VH with S16A, A68V, I70M, E74T, A79V
VL: B2 VL
notes: as for B1
B10: HFB6-4hz16-hG1 (antibody, human IgG1, V domains shown)
VH: EVQLVESGGGLVQPGGSLKLSCATSGFNIKDTYIHWVRQASGKGLEWIGRNDPANGNTKYAASFKGRATISADDSKNTAYLQLNSLKTEDTAVYYCASYEGYYERFGYWGQGTLVTVSS
VL: B2 VL
notes: as for B1

Each binder was assayed against T1, human BTLA (human, UniProt Q7Z6A9 31-289) (assay: flow cytometry, HEK293 cells overexpressing human BTLA).
T1 construct: also called hBTLA; HEK293.hBTLA
T1 sequence: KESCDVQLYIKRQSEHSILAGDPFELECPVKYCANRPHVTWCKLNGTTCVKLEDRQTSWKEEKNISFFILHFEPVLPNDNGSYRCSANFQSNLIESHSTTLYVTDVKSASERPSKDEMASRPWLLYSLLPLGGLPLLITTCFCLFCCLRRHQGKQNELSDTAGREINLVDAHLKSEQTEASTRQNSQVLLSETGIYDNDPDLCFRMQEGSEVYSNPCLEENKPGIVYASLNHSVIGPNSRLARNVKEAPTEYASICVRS
Protocol: HEK293 cells overexpressing human BTLA and Expi293 cells overexpressing cynomolus BTLA were incubated with different concentrations of humanized anti-BTLA antibodies. Anti-BTLA antibody binding to target cells were quantified with an AF647-conjugated anti-human IgG Fc secondary antibody by flow cytometry.

Binding result, binds:
B1, B2, B3, B4, B5, B6, B7, B8, B9, B10
